Key:
[1] = target: full length human PSMA (human) (UniProt Q04609); assay: FACS, 15 ug/ml on LNCaP cells, PE goat anti-mouse IgG (control of FIG. 13 study)
[2] = target: full length human PSMA (human) (UniProt Q04609); assay: FACS, 15 ug/ml on LNCaP cells, PE goat anti-mouse IgG (control of FIG. 19 study)
[3] = target: full length human PSMA (human) (UniProt Q04609); assay: FACS, 15 ug/ml on LNCaP cells, PE goat anti-mouse IgG (control of FIG. 24 study)
[4] = target: full length human PSMA (human) (UniProt Q04609); assay: FACS, 15 ug/ml on LNCaP cells, PE goat anti-mouse IgG (control of FIG. 29 study)

Sequence of full length human PSMA (human) (Q04609 whole entry): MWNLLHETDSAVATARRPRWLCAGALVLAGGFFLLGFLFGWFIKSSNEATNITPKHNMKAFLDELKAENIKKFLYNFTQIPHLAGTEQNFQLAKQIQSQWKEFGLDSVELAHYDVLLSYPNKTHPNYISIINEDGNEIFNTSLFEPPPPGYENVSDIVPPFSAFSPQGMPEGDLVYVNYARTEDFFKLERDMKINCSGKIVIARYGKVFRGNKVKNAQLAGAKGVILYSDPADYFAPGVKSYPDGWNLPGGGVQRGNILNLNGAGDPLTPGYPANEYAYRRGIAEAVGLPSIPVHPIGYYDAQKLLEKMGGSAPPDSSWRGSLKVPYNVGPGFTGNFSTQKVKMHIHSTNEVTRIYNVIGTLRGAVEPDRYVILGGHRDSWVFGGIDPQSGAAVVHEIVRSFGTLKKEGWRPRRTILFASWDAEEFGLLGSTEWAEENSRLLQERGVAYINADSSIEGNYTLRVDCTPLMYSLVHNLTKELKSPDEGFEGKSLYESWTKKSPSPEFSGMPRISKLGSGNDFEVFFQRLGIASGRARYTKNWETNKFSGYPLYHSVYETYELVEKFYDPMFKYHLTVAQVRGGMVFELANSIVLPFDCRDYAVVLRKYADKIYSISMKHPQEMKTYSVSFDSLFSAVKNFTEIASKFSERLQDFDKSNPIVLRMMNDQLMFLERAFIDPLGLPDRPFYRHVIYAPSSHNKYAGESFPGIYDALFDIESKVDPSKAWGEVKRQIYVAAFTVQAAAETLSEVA

fold-change in MFI over secondary antibody alone [1]: 45.3 fold
fold change in MFI over secondary antibody alone [2]: 45.3 fold
fold change in MFI over secondary antibody alone [3]: 45.3 fold
fold change in MFI over secondary antibody alone [4]: 14.3 fold
Substance: mouse anti-human PSMA monoclonal antibody, clone J591-A

From patent US20130295110A1
